Data from US6150090.

Target: IgNF-A (NF-A1), ubiquitous octamer-binding protein (Homo sapiens) (UniProt P14859)
Test: EMSA
Settings: affinity over heterologous plasmid DNA; poly(dI-dC) carrier; DNase I footprint -72 to -52

IgNF-A (NF-A1), ubiquitous octamer-binding protein (Homo sapiens), sequence (P14859 whole entry): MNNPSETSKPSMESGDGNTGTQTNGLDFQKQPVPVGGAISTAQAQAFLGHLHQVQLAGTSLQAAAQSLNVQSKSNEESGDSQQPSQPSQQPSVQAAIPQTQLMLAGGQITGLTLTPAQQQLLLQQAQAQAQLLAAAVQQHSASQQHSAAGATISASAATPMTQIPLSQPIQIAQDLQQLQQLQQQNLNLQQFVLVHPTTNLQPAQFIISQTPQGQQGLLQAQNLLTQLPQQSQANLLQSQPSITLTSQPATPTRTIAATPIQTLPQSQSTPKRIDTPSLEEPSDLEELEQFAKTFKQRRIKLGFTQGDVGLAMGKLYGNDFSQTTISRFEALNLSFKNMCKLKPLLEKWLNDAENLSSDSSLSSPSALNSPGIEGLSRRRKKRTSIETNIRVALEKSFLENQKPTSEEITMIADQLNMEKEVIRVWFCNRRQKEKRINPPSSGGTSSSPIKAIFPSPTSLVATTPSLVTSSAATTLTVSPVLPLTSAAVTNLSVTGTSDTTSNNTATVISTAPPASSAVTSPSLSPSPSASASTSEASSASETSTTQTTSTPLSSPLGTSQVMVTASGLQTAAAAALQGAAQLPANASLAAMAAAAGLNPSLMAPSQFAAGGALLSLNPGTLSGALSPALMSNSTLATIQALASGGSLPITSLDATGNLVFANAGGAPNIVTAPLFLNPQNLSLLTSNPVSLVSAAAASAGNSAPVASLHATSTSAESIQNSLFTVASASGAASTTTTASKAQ

In the case of “MOPC41 V kappa promoter PvuII-SfaNI fragment”, the binding signal is reported as greater than 10000 fold.
